Measured values as given in PMC5003437, “Development and Optimization of a Thrombin Sandwich Aptamer Microarray”.

Tests used:
human alpha-thrombin [1] = biological target: T1, human alpha-thrombin (Homo sapiens, UniProt P00734;P00734 328-363;364-622); test: sandwich aptamer microarray (fluorescence); thrombin captured on immobilized TBA1; LOD 0.75 nM (not Kd); 20 mM Tris, 140 mM NaCl, 5 mM KCl, 1 mM MgCl2, pH 7.5, 25 C; 30 min pre-incubation with TBA2, then 2 h on array; PBS wash
human alpha-thrombin [2] = biological target: T1, human alpha-thrombin; test: sandwich aptamer microarray (fluorescence); thrombin captured on immobilized TBA1, Cy3-streptavidin detection; LOD 0.17 nM (not Kd); 20 mM Tris, 140 mM NaCl, 5 mM KCl, 1 mM MgCl2, pH 7.5, 25 C; 30 min pre-incubation with TBA2, then 2 h on array; PBS wash

Binder	binding result (human alpha-thrombin [1])	binding result (human alpha-thrombin [2])
AGTCCGTGGTAGGGCAGGTTGGGGTGACT (structured_DNA) [TBA2-Cy5]	binds	–
AGTCCGTGGTAGGGCAGGTTGGGGTGACT (structured_DNA) [TBA2-biotin]	–	binds
